The supplement of paper PMC10724198
± gives the standard deviation of the averaged measurements.

Test system: Saccharomyces cerevisiae
Test: protein stability index of tFT-peptide fusion (C-terminal peptide) (PSI (0-1 scale)); higher = more stable (slower turnover)
Conditions: temperature: 30 C
Method: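 MPS profiling in S. cerevisiae of the yeast C-terminome library: the last 12 aa of each annotated ORF are fused to the C-terminus of a sfGFP-mCherry timer, after a GGGS linker. Cells are FACS-sorted into 8 mCherry/sfGFP bins and deep-sequenced. PSI runs from 0 (unstable) to 1 (stable); wild type and das1Δ backgrounds, two technical replicates each.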

[1] = genetic background: das1 deletion

| Sequence | protein stability index [1] | protein stability index (genetic background: wild type) |
| --- | --- | --- |
| KSQISVSFYRDN [YPR027C C-terminal 12 aa] | 0.704 ± 0.04 | 0.6736 ± 0.0023 |
| KSVRIAIDKPIR [ALD5 C-terminal 12 aa] | 0.696 ± 0.026 | 0.666 ± 0.018 |
| KTGKKNKVAKKN [SRP14 C-terminal 12 aa] | 0.682 ± 0.0078 | 0.692 ± 0.021 |
| KTHRSRSSRKGN [YMR135W-A C-terminal 12 aa] | 0.6834 ± 0.0026 | 0.704 ± 0.023 |
| KTQDYGKKYNSG [SIZ1 C-terminal 12 aa] | 0.69 ± 0.018 | 0.727 ± 0.0097 |
| KTVSDEEYAYIV [APM2 C-terminal 12 aa] | 0.6901 ± 0.0029 | 0.707 ± 0.011 |
| KTVSPNWEVKEL [CYM1 C-terminal 12 aa] | 0.6828 ± 0.0036 | 0.702 ± 0.019 |
| KTYIKNDVEIFN [HBN1 C-terminal 12 aa] | 0.715 ± 0.025 | 0.726 ± 0.067 |
| KVNGDIYRLPPS [MBA1 C-terminal 12 aa] | 0.6888 ± 0.001 | 0.677 ± 0.0092 |
| KVRTQSKQPQEE [SAW1 C-terminal 12 aa] | 0.682 ± 0.021 | 0.673 ± 0.026 |
| KVSPADAAKKAL [RPS26A C-terminal 12 aa] | 0.704 ± 0.0096 | 0.718 ± 0.02 |
| KVTSANEHTSAV [PEX27 C-terminal 12 aa] | 0.689 ± 0.011 | 0.697 ± 0.013 |
| KWGLSKKDGRQA [SLY41 C-terminal 12 aa] | 0.699 ± 0.034 | 0.7036 ± 0.0043 |
| KWLWRELEESSL [OCA5 C-terminal 12 aa] | 0.745 ± 0.018 | 0.7234 ± 0.0014 |
| KYKFYDDENLTE [SOL1 C-terminal 12 aa] | 0.72 ± 0.017 | 0.733 ± 0.081 |
| KYRRQVRYTQRT [YGL052W C-terminal 12 aa] | 0.708 ± 0.0075 | 0.698 ± 0.013 |
| KYYETVGKADII [AIM36 C-terminal 12 aa] | 0.68805 ± 0.00047 | 0.697 ± 0.025 |
| LADAGHLWHSIT [YNL120C C-terminal 12 aa] | 0.746 ± 0.02 | 0.6128 ± 0.00091 |
| LADLRVYLRVPG [YGL088W C-terminal 12 aa] | 0.565 ± 0.021 | 0.568 ± 0.013 |
| LAFIAACKKYIY [IKS1 C-terminal 12 aa] | 0.696 ± 0.023 | 0.487 ± 0.026 |
| LAITIAALCASL [EXG2 C-terminal 12 aa] | 0.55 ± 0.0069 | 0.572 ± 0.018 |

| Sequence | protein stability index [1] | protein stability index (genetic background: wild type) |
| --- | --- | --- |
| LAPLQFSGIVRS [YDR274C C-terminal 12 aa] | 0.6773 ± 0.0022 | 0.682 ± 0.045 |
| LAVEETIGFGQE [RSP5 C-terminal 12 aa] | 0.7037 ± 0.0066 | 0.692 ± 0.011 |
| LAWNPNLSAKRF [PRP46 C-terminal 12 aa] | 0.71 ± 0.031 | 0.705 ± 0.021 |
| LDDTPAPTATNL [NUD1 C-terminal 12 aa] | 0.6857 ± 0.0035 | 0.701 ± 0.034 |
| LDIFCLIFRKRT [YPR076W C-terminal 12 aa] | 0.508 ± 0.031 | 0.5061 ± 0.00095 |
| LDSVFSKFCIGK [MSS1 C-terminal 12 aa] | 0.7 ± 0.0095 | 0.703 ± 0.082 |
| LEEETLPPSQKK [PYC2 C-terminal 12 aa] | 0.694 ± 0.013 | 0.647 ± 0.02 |
| LEFVRGGSRQFT [TIM44 C-terminal 12 aa] | 0.689 ± 0.0081 | 0.713 ± 0.02 |
| LEKHTASDTSCI [YAL066W C-terminal 12 aa] | 0.727 ± 0.025 | 0.692 ± 0.072 |
| LENIKKAKEFFQ [GTR1 C-terminal 12 aa] | 0.726 ± 0.012 | 0.705 ± 0.027 |
| LERLRYLFPNYW [MEU1 C-terminal 12 aa] | 0.738 ± 0.016 | 0.717 ± 0.051 |
| LFFQDIERFFSC [YMR194C-A C-terminal 12 aa] | 0.7717 ± 0.0042 | 0.7619 ± 0.0028 |
| LHVISKVAGKLF [SBH1 C-terminal 12 aa] | 0.703 ± 0.022 | 0.656 ± 0.014 |
| LIDLCCSCAGGM [MNC1 C-terminal 12 aa] | 0.685 ± 0.012 | 0.643 ± 0.0049 |
| LIPELYSVLDGF [YDL007C-A C-terminal 12 aa] | 0.7449 ± 0.0037 | 0.74 ± 0.051 |
| LISEFQKKQAKK [MEF1 C-terminal 12 aa] | 0.7194 ± 0.0033 | 0.691 ± 0.038 |
| LKDNLAKPKTRR [VBA2 C-terminal 12 aa] | 0.715 ± 0.0088 | 0.708 ± 0.031 |
| LKILRQKMNHQN [ATG1 C-terminal 12 aa] | 0.686 ± 0.013 | 0.207 ± 0.042 |
| LKNGDKPHLLKF [RPL6B C-terminal 12 aa] | 0.714 ± 0.038 | 0.686 ± 0.015 |
| LKRVVTKAMSSR [SSB1 C-terminal 12 aa] | 0.714 ± 0.012 | 0.6864 ± 0.0039 |
